The values that follow come from article PMC8187606, “Biophysical and structural studies reveal marginal stability of a crucial hydrocarbon biosynthetic enzyme acyl ACP reductase” (Scientific Reports, 2021).

The series deals with the molecule itself. Put plainly: SEC; Superdex 200 Increase 10/300 GL; AAR 1.5 mg/mL; 50 mM Tris, 100 mM NaCl, 1 mM DTT, pH 7.4; without GdnHCl; oligomer of unstated size. For orientation: SEC sorts molecules by how far they enter the pores of the column.

B1: Acyl-ACP reductase (AAR) from Synechococcus elongatus PCC 7942, 6-His tagged recombinant (enzyme)
chain: MFGLIGHLTSLEQARDVSRRMGYDEYADQGLEFWSSAPPQIVDEITVTSATGKVIHGRYIESCFLPEMLAARRFKTATRKVLNAMSHAQKHGIDISALGGFTSIIFENFDLASLRQVRDTTLEFERFTTGNTHTAYVICRQVEAAAKTLGIDITQATVAVVGATGDIGSAVCRWLDLKLGVGDLILTARNQERLDNLQAELGRGKILPLEAALPEADFIVWVASMPQGVVIDPATLKQPCVLIDGGYPKNLGSKVQGEGIYVLNGGVVEHCFDIDWQIMSAAEMARPERQMFACFAEAMLLEFEGWHTNFSWGRNQITIEKMEAIGEASVRHGFQPLALAI
notes: Acyl-ACP reductase (AAR), Synechococcus elongatus PCC 7942, codon-optimized aar gene in pQE30; domains described as NTD 1-130, mid-domain 131-264, CTD 265-341; also called Acyl-acyl carrier protein reductase; source: E. coli M15 (pQE30AAR), purified from the soluble fraction (Ni-NTA, gel filtration)
B1: the binding result is “binds”.
